Reference: publication PMC13036491, “RNA binding protein Musashi1 interacts with the viral genomic RNA and restricts SARS-CoV-2 infection by repressing translation”

Biological target: GST-Msi1 (Homo sapiens, UniProt O43347 1-362)
Test: EMSA; GST-Msi1 ~1.5-9 uM; dose-dependent
Settings: protein: recombinant; tags: N-terminal GST (pGEX 5X-2); label: fluorescein-12-UTP

GST-Msi1, sequence (O43347 whole entry): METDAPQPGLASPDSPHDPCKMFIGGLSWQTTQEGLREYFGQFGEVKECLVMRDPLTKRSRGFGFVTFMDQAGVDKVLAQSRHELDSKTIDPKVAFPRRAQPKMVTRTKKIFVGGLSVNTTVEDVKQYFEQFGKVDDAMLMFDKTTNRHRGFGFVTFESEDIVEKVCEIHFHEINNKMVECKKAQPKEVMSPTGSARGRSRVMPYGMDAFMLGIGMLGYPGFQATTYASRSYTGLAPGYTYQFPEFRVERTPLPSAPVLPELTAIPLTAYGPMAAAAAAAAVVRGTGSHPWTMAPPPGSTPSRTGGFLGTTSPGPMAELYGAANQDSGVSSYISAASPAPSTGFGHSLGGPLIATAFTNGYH

GGGAUUUUAGUAGUGCUAUCCCCA (ssRNA) [M2 RNA (HVR MBE)]: binds.
